Measurements published in US20200079823A1.

Target: cathepsin B

IC50 of cathepsin B inhibition (fluorescence-based kit assay): 9 µM
Substance: surugamide I (13) (peptide)
